Assay results as given in paper PMC10194977.

Key:
[1] = target: Recombinant human PERK (EIF2AK3, active catalytic subunit of PERK protein) (human)
[2] = target: Recombinant human PERK (EIF2AK3, active catalytic subunit of PERK protein) (human); remark: listed apart in the source
[3] = target: Recombinant human PERK (EIF2AK3, active catalytic subunit of PERK protein) (human); remark: listed apart in the source

full-length recombinant human calcineurin-B (from UniProt P63098 1-170) (natural protein)
% of PERK activity (relative to control; ADP-Glo, SMAD3 substrate) with 0.87 μM calcineurin-B, 1 h at 37 °C (no significant activation) [1]: 99.5%
% of PERK activity (relative to control; ADP-Glo, SMAD3 substrate) with 0.87 μM calcineurin-B, 1 h at RT [1]: 106%
relative PERK kinase activity (% of basal activity; ADP-Glo, SMAD3 substrate) with 0.87 μM calcineurin-B at reaction times of 15, 30, 60 and 120 min, RT; highest value at 120 min [2]: 128%
EC50 of activation of PERK kinase activity (ATP consumption, ADP-Glo luminescence; 87 nM PERK, 0.26 μM SMAD3 as substrate, 50 μM ATP; RT, 2 h; three-fold serial dilution of calcineurin-B) [3]: 2.72 µM
